The text below walks through data of US20170173151A1 (Genmab, published 2017).

For assay [1], the target named is human CD74, naturally expressed on cells (Raji, Daudi, M4A4, NCI-H747 cells; human tonsil tissue) (human) (UniProt P04233). The experiment in a line: cell-based or functional assay.
For assay [2] the target is unchanged. Put plainly: FACS on Daudi cells; mean of three experiments.
The target is the same in assay [3]. Put plainly: FACS on Daudi cells, 10 µg/mL; mean of three experiments.
In assay [4] the target is T1, HisCD74v1 (recombinant extracellular domain of human CD74 variant 1, N-terminal hexameric His tag) (human, UniProt P04233 73-296).
T1 construct: also called recombinant CD74v1; CD74v1 extracellular domain
T1 sequence: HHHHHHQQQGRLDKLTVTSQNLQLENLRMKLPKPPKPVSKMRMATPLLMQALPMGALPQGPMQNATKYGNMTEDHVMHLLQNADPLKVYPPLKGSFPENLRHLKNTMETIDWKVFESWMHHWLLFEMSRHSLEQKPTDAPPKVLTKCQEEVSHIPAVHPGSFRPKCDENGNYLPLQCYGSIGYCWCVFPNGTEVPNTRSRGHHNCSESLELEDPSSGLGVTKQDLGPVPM
The experiment in a line: ELISA, coated recombinant CD74v1 extracellular domain (CD74ECDHis); mean of four experiments. As to the method:
ELISA plates (Greiner BioOne) were coated with 2 μg/mL, 100 μL per well, recombinant CD74ECDHis in PBS (B. Braun Melsungen AG) at 4° C., 0/N. ELISA plates were emptied and blocked with 200 μL/well PBS containing 0.05% Tween-20 (PBST) while shaking (300 rpm), at RT for 1 hour, washed three times with 300 μL PBST and emptied. Subsequently, 100 μL anti-CD74 ADCs or unconjugated CD74-specific HuMab antibodies were added in serial dilutions in PBST and incubated while shaking at RT for 2 hours. ELISA plates were washed with PBST and emptied. Bound anti-CD74 ADCs and unconjugated HuMab antibodies were detected by addition of HRP-conjugated mouse-anti human IgG1 (100 μL; 0.015 μg/mL; Sanquin; # M1328) in PBST and incubation while shaking, at RT for 2 hours. Plates were washed with PBST, emptied and incubated with 100 μL ABTS solution (50 ml ABTS buffer [Roche] and one ABTS tablet [50 mg; Roche]). After incubation in the dark while shaking, at RT for 30 min, the reaction was stopped by incubation with 100 μL per well oxalic acid (2% [w/v]; Riedel de Haen) in the dark while shaking, for 10 min. Plates were measured at OD 405 nm in an ELISA reader (Biotek Instruments, EL808 Absorbance Microplate Reader).
IgG1-b12, an antibody binding to a non-related antigen, was used as a negative control (both unconjugated as well as in ADC format). Binding curves were analyzed by non-linear regression (sigmoidal dose-response with variable slope) using GraphPad Prism 5 software (GraphPad Software, San Diego, Calif., USA).
(An ELISA detects its analyte on a solid surface through an enzyme-linked reagent.)

In assay [1], IgG1-b12 (antibody) registered a % viability (minimal) of Raji cells, anti-kappa-ETA' assay of 85.9%.

B1: HuMab-CD74-005 (antibody, human IgG1, V domains shown)
VH: QVQLVESGGGVVQPGRSLRLSCAASGFTFSSYAMHWVRQAPGKGLEWVAVISYDGSNKYYADSVKGRFTISRDNSKNTLYLQMNSLRAEDTAVYYCASGRYYGSGSYSSYFDYWGQGTLVTVSS
VL: DIQMTQSPSSLSASVGDRVTITCRASQGISSWLAWFQQKPEKAPKSLIYAASSLQSGVPSRFSGSGSGTDFTLTISSLQPEDFATYYCQQYNSYPLTFGGGTKVEIK
notes: Human IgG1,kappa; produced transiently in HEK-293F cells; also called antibody 005
One may read the EC50 as the concentration that produces a half-maximal response. Consider B1, for which the EC50 stood at 1.27 µg/mL in assay [2] and 0.03 µg/mL in assay [4]. In addition, the Maximal binding (MFI at 10 µg/mL) in assay [3] was determined as 2780 MFI.

B2: HuMab-CD74-011-mcMMAF (antibody, IgG1, V domains shown)
VH: QVQLVESGGGVVQPGRSLRLSCAASGFTFSSYGMHWVRQAPDKGLEWVAVIWYDGSNKYYADSVKGRFTISRDNSKNTLYLQMNSLRAEDTAVYYCARGGTLVRGAMYGTDVWGQGTTVTVSS
VL: DIQMTQSPSSLSASVGDRVTITCRASQGISSWLAWYQQKPEKAPKSLIYAASSLQSGVPSRFSGSGSGTDFTLTISSLQPEDFATYYCQQYNSYPLTFGGGTKVEIK
modifications: drug-linker mcMMAF alkylated to the cysteines of the reduced antibody (DAR 3.9 by HIC)
notes: Antibody-drug conjugate of HuMab-CD74-011 (IgG1,kappa)
In assay [1], B2 gave a % kill of Daudi cells at 10 µg/mL of 92%, a % kill of M4A4 cells at 10 µg/mL of 96%, a % kill of NCI-H747 cells at 10 µg/mL of 17% and a % kill of Raji cells at 10 µg/mL of 92%. In assay [1], this molecule displayed an IC50 of killing of Daudi cells of 0.01 µg/mL, an IC50 of killing of M4A4 cells of 0.1 µg/mL and an IC50 of killing of Raji cells of 0.01 µg/mL. The molecule further showed a 50% effective concentration (EC50) in assay [2] of 0.05 µg/mL. For the same molecule, the Maximal binding (MFI at 10 µg/mL) in assay [3] was determined as 5330 MFI. Further, the EC50 in assay [4] worked out at 0.02 µg/mL.

B3: HuMab-CD74-011-vcMMAE (antibody, IgG1, V domains shown)
VH: QVQLVESGGGVVQPGRSLRLSCAASGFTFSSYGMHWVRQAPDKGLEWVAVIWYDGSNKYYADSVKGRFTISRDNSKNTLYLQMNSLRAEDTAVYYCARGGTLVRGAMYGTDVWGQGTTVTVSS
VL: DIQMTQSPSSLSASVGDRVTITCRASQGISSWLAWYQQKPEKAPKSLIYAASSLQSGVPSRFSGSGSGTDFTLTISSLQPEDFATYYCQQYNSYPLTFGGGTKVEIK
modifications: drug-linker vcMMAE alkylated to the cysteines of the reduced antibody (DAR 3.8-3.9)
notes: Antibody-drug conjugate of HuMab-CD74-011 (IgG1,kappa); also called vcMMAE-conjugated HuMab-CD74-011
In assay [1], B3 gave a % kill of Daudi cells at 10 µg/mL of 86%, a % kill of M4A4 cells at 10 µg/mL of 100%, a % kill of NCI-H747 cells at 10 µg/mL of 40% and a % kill of Raji cells at 10 µg/mL of 89%. In assay [1], this molecule yielded an IC50 of killing of Daudi cells of 0.02 µg/mL, an IC50 of killing of M4A4 cells of 0.32 µg/mL, an IC50 of killing of NCI-H747 cells of 7.91 µg/mL and an IC50 of killing of Raji cells of 0.04 µg/mL. The molecule also had an EC50 in assay [2] of 0.05 µg/mL. For the same molecule, the Maximal binding (MFI at 10 µg/mL) in assay [3] was determined as 3790 MFI. The EC50 in assay [4] came to 0.03 µg/mL.

B4: HuMab-CD74-005-vcMMAE (antibody, IgG1, V domains shown)
VH: QVQLVESGGGVVQPGRSLRLSCAASGFTFSSYAMHWVRQAPGKGLEWVAVISYDGSNKYYADSVKGRFTISRDNSKNTLYLQMNSLRAEDTAVYYCASGRYYGSGSYSSYFDYWGQGTLVTVSS
VL: DIQMTQSPSSLSASVGDRVTITCRASQGISSWLAWFQQKPEKAPKSLIYAASSLQSGVPSRFSGSGSGTDFTLTISSLQPEDFATYYCQQYNSYPLTFGGGTKVEIK
modifications: drug-linker vcMMAE alkylated to the cysteines of the reduced antibody (DAR 3.9-4.0)
notes: Antibody-drug conjugate of HuMab-CD74-005 (IgG1,kappa); also called vcMMAE-conjugate of HuMab-CD74-005
In assay [1], B4 gave a % kill of Daudi cells at 10 µg/mL of 85%, a % kill of M4A4 cells at 10 µg/mL of 100%, a % kill of NCI-H747 cells at 10 µg/mL of 41% and a % kill of Raji cells at 10 µg/mL of 88%. In assay [1], this molecule gave an IC50 of killing of Daudi cells of 0.08 µg/mL, an IC50 of killing of M4A4 cells of 0.56 µg/mL, an IC50 of killing of NCI-H747 cells of 7.48 µg/mL and an IC50 of killing of Raji cells of 0.11 µg/mL. Further, in assay [2], the EC50 came to 0.26 µg/mL. In assay [3], this molecule displayed a Maximal binding (MFI at 10 µg/mL) of 2860 MFI. Besides, in assay [4], the EC50 was 0.04 µg/mL.

B5: HuMab-CD74-006-vcMMAE (antibody, IgG1, V domains shown)
VH: QVQLVESGGGVVQPGRSLRLSCAASGFTFSSYAMHWVRQAPGKGLEWVAVISYDGSIKYYADSVKGRFTISRDNSKNTLYLQMNSLRVEDTAVFYCARGREITSQNIVILLDYWGQGTLVTVTS
VL: DIQMTQSPSSLSASVGDRVTITCRASQGISSWLAWYQQKPEKAPKSLIYAASSLQSGVPSRFSGSGSGTDFTLTISSLQPEDFATYYCQQYNSYPLTFGGGTKVEIK
modifications: drug-linker vcMMAE alkylated to the cysteines of the reduced antibody (DAR 4.0)
notes: Antibody-drug conjugate of HuMab-CD74-006 (IgG1,kappa); also called vcMMAE-conjugated HuMab-CD74-006
In assay [1], B5 displayed a % kill of Daudi cells at 10 µg/mL of 85%, a % kill of M4A4 cells at 10 µg/mL of 100%, a % kill of NCI-H747 cells at 10 µg/mL of 49% and a % kill of Raji cells at 10 µg/mL of 90%. In assay [1], this molecule displayed an IC50 of killing of Daudi cells of 0.03 µg/mL, an IC50 of killing of M4A4 cells of 0.28 µg/mL, an IC50 of killing of NCI-H747 cells of 6.12 µg/mL and an IC50 of killing of Raji cells of 0.05 µg/mL. The molecule also returned an EC50 in assay [2] of 0.03 µg/mL. The molecule further gave a Maximal binding (MFI at 10 µg/mL) in assay [3] of 3280 MFI. Further, in assay [4], the EC50 came to 0.03 µg/mL.

B6: HuMab-CD74-006-mcMMAF (antibody, IgG1, V domains shown)
VH: QVQLVESGGGVVQPGRSLRLSCAASGFTFSSYAMHWVRQAPGKGLEWVAVISYDGSIKYYADSVKGRFTISRDNSKNTLYLQMNSLRVEDTAVFYCARGREITSQNIVILLDYWGQGTLVTVTS
VL: DIQMTQSPSSLSASVGDRVTITCRASQGISSWLAWYQQKPEKAPKSLIYAASSLQSGVPSRFSGSGSGTDFTLTISSLQPEDFATYYCQQYNSYPLTFGGGTKVEIK
modifications: drug-linker mcMMAF alkylated to the cysteines of the reduced antibody (DAR 3.7-4.1)
notes: Antibody-drug conjugate of HuMab-CD74-006 (IgG1,kappa)
In assay [1], B6 had a % kill of Daudi cells at 10 µg/mL of 93%, a % kill of M4A4 cells at 10 µg/mL of 97%, a % kill of NCI-H747 cells at 10 µg/mL of 21% and a % kill of Raji cells at 10 µg/mL of 93%. In assay [1], this molecule yielded an IC50 of killing of Daudi cells of 0.01 µg/mL, an IC50 of killing of M4A4 cells of 0.12 µg/mL and an IC50 of killing of Raji cells of 0.01 µg/mL. Besides, the EC50 in assay [2] came out at 0.03 µg/mL. In addition, the Maximal binding (MFI at 10 µg/mL) in assay [3] was found to be 4050 MFI. In addition, the EC50 in assay [4] came out at 0.02 µg/mL.

B7: HuMab-CD74-005-mcMMAF (antibody, IgG1, V domains shown)
VH: QVQLVESGGGVVQPGRSLRLSCAASGFTFSSYAMHWVRQAPGKGLEWVAVISYDGSNKYYADSVKGRFTISRDNSKNTLYLQMNSLRAEDTAVYYCASGRYYGSGSYSSYFDYWGQGTLVTVSS
VL: DIQMTQSPSSLSASVGDRVTITCRASQGISSWLAWFQQKPEKAPKSLIYAASSLQSGVPSRFSGSGSGTDFTLTISSLQPEDFATYYCQQYNSYPLTFGGGTKVEIK
modifications: drug-linker mcMMAF alkylated to the cysteines of the reduced antibody (DAR 3.9-4.0)
notes: Antibody-drug conjugate of HuMab-CD74-005 (IgG1,kappa); also called mcMMAF-conjugate of HuMab-CD74-005
For the molecule B7, in assay [1], the % kill of Daudi cells at 10 µg/mL is 90%, the % kill of M4A4 cells at 10 µg/mL was 97%, the % kill of NCI-H747 cells at 10 µg/mL worked out at 5% and the % kill of Raji cells at 10 µg/mL was found to be 92%. In assay [1], this molecule came in with an IC50 of killing of Daudi cells of 0.03 µg/mL, an IC50 of killing of M4A4 cells of 0.38 µg/mL and an IC50 of killing of Raji cells of 0.05 µg/mL. Also, in assay [2], the EC50 worked out at 1.05 µg/mL. Also, the Maximal binding (MFI at 10 µg/mL) in assay [3] is 2530 MFI. Besides, the EC50 in assay [4] was 0.04 µg/mL.
